Results: US12433934B2, “Methods and compositions for preventing and treating atherosclerosis and related diseases” (Shanghai Puyou Biomedical Co., Ltd., priority 2018, dated 2025)
“Also recorded” adds a separate entry of the source.

Key:
ApoE−/− mice = assay: Atherosclerotic plaques of the aorta (en face oil red O staining) in high-fat diet ApoE−/− mice; assay type: in vivo; details: 13 weeks
Experimental: FIGS. 15-16. The sDSS1 protein inhibits the formation of atherosclerotic plaques in ApoE−/− mice. […] At the end of the injection, the aorta was dissected for oil red O staining, and the area of plaques was calculated.
Experimental animals: ApoE−/− mice, 8-week-old, male, were purchased from Nanjing Biomedical Research Institute of Nanjing University. The experimental animals were housed in an animal room for one week before the experiment.
Experimental method: ApoE−/− mice were fed with high-fat diet containing 0.25% cholesterol starting from the age of 9 weeks. From the 10th week of high-fat diet feeding, the mice were randomly divided into three groups according to the total cholesterol level, with 10 mice in each group. […] At the 22nd week of high-fat diet feeding, that is, the 13th week of administration, the animals were executed and dissected, and the whole aorta was separated. The separated aorta was stained with en face oil red O to evaluate the formation of atherosclerotic plaques.

Hep G2 cells = assay: Uptake of DiL-oxLDL by Hep G2 cells (fluorescence microscope, flow cytometry); assay type: cell-based, human; details: 9 h
Experimental: Materials: sDSS1 protein, DiL-oxLDL, DiL-LDL (ThermoFisher, L3482), human hepatoma cell Hep G2 (Cell Bank of Typical Culture Preservation Committee of Chinese Academy of Sciences, Catalog Number: SCSP-510).
Experimental method: (1) When detecting the phagocytosis of oxLDL by Hep G2 cells, Hep G2 cells were inoculated into a 6-well plate with 250000 cells per well. After 12 h, all the cells were adhered. The old culture medium was discarded. 1.5 ml 10 μg/ml DiL-oxLDL was added, or 1.5 ml 10 μg/ml DiL-oxLDL was added together with 5 μg/ml and 50 μg/ml of the sDSS1 protein. After incubation for 9 h in the incubator, the fluorescence signal in the cells was observed by a fluorescence microscope. The cells were digested by trypsin to form single cells for detecting fluorescence intensity via flow cytometry. (2) When detecting the phagocytosis of LDL by Hep G2 cells, Hep G2 cells were inoculated into a 6-well plate with 250000 cells per well. After 12 h, all the cells were adhered. The old culture medium was discarded. 1.5 ml 10 μg/ml DiL-LDL was added, or 1.5 ml 10 μg/ml DiL-LDL was added together with 5 μg/ml and 50 μg/ml of the sDSS1 protein. After incubation for 10 h in the incubator, the fluorescence signal in the cells was observed by fluorescence microscope. The cells were digested by trypsin to form single cells for detecting fluorescence intensity via flow cytometry.

LDL = assay: Co-incubation with LDL, SDS-PAGE separation, Coomassie brilliant blue staining; assay type: binding; details: 12 h
Experimental: (§1) Experimental materials: sDSS1 protein, sDSS1 mutant protein 1 (sDSS1-M1, SEQ ID NO: 15), sDSS1 mutant protein 2 (sDSS1-M2, SEQ ID NO: 16), oxidized low density lipoprotein (oxLDL) (Solarbio, Article No.: H7980); low density lipoprotein (LDL) (Solarbio, Article No.: H7960).
(§2) Experimental method: 2 μg of oxLDL or LDL was mixed with 6 μg of sDSS1 protein or 10 μg of sDSS1 protein in a 1.5 ml EP tube in the presence of 20 mM sodium acetate/acetic acid buffer (pH 4.5) or 20 mM phosphate buffer (pH 7.2) respectively, and incubated at 37° C. for 12 h. A loading buffer was added in the incubated product and evenly mixed, and the obtained mixture was denatured at 100° C. for 10 min to prepare a loading sample. The resulting sample was subjected to electrophoretic separation via polyacrylamide gel electrophoresis (SDS-PAGE). After separation, the SDS-PAGE gel was stained with Coomassie brilliant blue to display protein strips. The sDSS1-M1 or sDSS1-M2 protein was respectively mixed and incubated with oxLDL, and treated in the same way. 15 μL of the sample was used for SDS-PAGE electrophoresis separation.

[1] = system: macrophages differentiated from monocyte THP-1; assay: Phagocytosis of DiL-oxLDL by macrophages differentiated from THP-1 (fluorescence microscope, flow cytometry); assay type: cell-based, human; details: 10 μg/ml DiL-oxLDL, 5 h
Experimental: Experimental materials: sDSS1 protein, DiL-oxLDL, phorbol ester (PMA, Sigma Aldrich, Article No.: P1585), human monocyte THP-1 (Cell Bank of Typical Culture Preservation Committee of Chinese Academy of Sciences, Catalog No.: SCSP-567).
Experimental method: THP-1 cells were inoculated into a 6-well plate with 250000 cells per well, and the culture solution contained 100 ng/mL PMA. After being activated by PMA for 48 h, the cells were cultured in a fresh culture medium for 4 days to facilitate cell adhesion. The old culture medium was discarded. 1.5 ml 10 μg/ml DiL-oxLDL was added, or 1.5 ml 10 μg/ml DiL-oxLDL was added together with 2 μg/ml, 5 μg/ml, 10 μg/ml, or 20 μg/ml of the sDSS1 protein. After incubation for 5 h in an incubator, the fluorescence signal in the cells was observed by a fluorescence microscope. The cells were digested by trypsin to form single cells for detecting fluorescence intensity via flow cytometry.

oxLDL = target: T1, oxLDL (Homo sapiens, UniProt P04114); assay: Co-incubation with oxLDL, SDS-PAGE separation, Coomassie brilliant blue staining; assay type: binding
T1 construct: purchased Solarbio H7980
Experimental: as §1, §2

T1 sequence (P04114 28-4563): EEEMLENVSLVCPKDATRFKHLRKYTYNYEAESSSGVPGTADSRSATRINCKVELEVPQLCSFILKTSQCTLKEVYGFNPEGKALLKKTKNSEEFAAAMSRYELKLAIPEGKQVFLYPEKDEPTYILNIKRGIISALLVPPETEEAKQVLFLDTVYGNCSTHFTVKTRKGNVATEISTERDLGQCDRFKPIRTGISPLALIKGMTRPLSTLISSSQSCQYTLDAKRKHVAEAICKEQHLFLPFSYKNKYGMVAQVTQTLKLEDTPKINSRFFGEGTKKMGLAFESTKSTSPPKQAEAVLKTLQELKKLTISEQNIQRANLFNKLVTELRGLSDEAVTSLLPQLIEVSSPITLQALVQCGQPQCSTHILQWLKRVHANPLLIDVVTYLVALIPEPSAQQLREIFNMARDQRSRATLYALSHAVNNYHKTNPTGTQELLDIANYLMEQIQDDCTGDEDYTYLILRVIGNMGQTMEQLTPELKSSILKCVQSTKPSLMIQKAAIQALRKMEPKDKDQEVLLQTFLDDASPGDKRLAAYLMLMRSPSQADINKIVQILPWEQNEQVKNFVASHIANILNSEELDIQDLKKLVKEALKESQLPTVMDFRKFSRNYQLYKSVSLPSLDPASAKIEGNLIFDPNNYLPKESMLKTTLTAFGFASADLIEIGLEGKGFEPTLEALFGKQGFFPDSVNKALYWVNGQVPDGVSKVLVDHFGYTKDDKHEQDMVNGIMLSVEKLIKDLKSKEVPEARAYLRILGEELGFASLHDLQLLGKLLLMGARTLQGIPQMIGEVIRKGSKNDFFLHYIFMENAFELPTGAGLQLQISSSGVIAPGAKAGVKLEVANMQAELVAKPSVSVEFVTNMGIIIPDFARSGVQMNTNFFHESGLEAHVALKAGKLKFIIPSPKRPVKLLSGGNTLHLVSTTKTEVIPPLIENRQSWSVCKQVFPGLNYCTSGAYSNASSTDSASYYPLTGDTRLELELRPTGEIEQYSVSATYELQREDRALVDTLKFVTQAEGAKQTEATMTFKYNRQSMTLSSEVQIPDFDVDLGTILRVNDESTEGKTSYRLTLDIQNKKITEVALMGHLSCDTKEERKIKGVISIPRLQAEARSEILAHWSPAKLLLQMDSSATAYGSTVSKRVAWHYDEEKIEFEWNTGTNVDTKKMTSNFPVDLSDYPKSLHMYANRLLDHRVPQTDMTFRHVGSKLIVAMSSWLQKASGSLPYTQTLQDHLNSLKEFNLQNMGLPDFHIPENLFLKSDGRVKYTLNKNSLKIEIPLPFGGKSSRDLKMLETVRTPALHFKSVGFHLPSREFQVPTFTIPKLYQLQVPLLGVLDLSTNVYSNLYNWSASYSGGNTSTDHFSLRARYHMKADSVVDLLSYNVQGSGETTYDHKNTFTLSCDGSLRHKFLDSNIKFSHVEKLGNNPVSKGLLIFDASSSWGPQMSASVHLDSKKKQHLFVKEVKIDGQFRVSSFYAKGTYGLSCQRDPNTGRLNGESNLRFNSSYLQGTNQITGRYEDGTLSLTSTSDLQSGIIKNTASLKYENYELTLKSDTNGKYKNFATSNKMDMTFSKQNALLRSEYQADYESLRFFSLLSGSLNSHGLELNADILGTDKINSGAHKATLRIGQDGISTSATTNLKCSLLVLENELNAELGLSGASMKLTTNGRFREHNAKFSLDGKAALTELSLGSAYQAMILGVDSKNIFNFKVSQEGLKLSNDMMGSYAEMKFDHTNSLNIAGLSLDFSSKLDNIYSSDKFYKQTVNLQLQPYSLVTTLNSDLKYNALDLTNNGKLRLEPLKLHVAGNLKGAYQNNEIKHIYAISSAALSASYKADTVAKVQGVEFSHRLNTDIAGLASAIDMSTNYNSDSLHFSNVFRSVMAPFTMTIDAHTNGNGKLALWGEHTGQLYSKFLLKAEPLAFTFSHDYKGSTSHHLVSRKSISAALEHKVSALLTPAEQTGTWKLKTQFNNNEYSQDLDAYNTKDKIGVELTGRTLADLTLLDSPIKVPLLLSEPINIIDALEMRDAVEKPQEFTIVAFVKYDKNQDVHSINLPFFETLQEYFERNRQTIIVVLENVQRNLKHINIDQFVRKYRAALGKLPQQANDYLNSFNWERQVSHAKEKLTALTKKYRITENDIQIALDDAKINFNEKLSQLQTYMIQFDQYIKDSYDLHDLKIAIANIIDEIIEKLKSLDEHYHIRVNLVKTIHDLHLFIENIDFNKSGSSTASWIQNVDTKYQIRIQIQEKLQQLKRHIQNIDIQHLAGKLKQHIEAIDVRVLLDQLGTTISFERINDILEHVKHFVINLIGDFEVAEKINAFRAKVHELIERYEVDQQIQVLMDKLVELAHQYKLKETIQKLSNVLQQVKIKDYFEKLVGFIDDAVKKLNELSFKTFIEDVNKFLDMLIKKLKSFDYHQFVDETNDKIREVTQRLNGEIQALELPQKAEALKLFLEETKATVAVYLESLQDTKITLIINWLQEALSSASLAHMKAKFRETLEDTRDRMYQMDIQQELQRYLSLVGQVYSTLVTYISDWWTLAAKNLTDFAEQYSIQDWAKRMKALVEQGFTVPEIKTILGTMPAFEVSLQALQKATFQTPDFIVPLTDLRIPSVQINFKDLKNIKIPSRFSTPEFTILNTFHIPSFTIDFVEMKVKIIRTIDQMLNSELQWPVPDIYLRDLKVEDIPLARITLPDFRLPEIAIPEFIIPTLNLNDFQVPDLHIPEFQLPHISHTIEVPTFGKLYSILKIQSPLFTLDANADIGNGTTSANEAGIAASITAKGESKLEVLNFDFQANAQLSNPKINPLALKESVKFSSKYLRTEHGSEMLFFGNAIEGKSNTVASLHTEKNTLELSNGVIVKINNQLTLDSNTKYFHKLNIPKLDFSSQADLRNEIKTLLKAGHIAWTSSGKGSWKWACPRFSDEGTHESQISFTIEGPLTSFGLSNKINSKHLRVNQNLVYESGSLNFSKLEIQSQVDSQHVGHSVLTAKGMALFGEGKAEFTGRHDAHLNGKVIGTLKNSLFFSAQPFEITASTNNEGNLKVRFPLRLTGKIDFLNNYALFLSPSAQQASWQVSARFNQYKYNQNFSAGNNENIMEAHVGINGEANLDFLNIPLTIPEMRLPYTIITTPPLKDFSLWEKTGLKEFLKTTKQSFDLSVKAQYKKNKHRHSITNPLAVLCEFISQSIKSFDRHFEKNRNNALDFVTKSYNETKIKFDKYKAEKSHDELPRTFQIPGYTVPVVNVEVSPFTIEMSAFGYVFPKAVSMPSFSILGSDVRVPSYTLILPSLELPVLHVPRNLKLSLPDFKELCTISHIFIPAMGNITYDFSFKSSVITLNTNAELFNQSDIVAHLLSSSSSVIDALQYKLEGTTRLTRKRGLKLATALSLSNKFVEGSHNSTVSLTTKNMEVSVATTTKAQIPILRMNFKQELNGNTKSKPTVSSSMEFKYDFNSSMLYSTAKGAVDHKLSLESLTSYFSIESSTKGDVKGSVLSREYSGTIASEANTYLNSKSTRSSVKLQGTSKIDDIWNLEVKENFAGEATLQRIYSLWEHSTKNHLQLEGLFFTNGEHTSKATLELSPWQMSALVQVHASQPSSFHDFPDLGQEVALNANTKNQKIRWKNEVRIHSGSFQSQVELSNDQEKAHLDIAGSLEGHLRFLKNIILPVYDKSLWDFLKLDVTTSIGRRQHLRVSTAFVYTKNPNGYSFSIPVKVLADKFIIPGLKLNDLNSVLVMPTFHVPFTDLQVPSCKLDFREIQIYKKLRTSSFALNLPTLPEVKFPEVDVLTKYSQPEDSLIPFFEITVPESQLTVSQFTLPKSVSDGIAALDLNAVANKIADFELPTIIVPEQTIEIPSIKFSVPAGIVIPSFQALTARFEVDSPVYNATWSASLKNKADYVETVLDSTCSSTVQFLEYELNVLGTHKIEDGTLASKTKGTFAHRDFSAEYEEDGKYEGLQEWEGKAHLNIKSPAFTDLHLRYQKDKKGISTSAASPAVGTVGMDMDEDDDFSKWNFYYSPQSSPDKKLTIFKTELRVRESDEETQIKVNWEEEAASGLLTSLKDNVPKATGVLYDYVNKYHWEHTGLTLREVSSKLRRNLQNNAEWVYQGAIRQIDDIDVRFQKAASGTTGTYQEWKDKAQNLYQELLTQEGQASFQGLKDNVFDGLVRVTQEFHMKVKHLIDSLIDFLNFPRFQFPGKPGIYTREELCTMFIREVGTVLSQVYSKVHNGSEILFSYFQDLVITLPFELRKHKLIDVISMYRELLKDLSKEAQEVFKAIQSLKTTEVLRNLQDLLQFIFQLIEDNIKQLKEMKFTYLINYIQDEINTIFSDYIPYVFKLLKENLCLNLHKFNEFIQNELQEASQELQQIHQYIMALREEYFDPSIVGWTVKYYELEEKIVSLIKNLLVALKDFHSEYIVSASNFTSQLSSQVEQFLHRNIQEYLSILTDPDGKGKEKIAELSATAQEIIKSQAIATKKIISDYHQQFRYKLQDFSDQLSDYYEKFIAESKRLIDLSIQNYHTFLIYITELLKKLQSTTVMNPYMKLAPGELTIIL

B1: sDSS1 protein: sDSS1 protein produced by the company itself, purity more than 95%; sequence of human sDSS1 protein is SEQ ID NO:1 (protein, listed as Homo sapiens)
chain: MSEKKQPVDLGLLEEDDEFEEFPAEDWAGLDEDEDAHVWEDNWDDDNVEDDFSNQLRATVLLMILVCETPYGCYVLHQKGRMCSAFLCC
Area of atherosclerotic plaques (en face oil red O) vs model group (ApoE−/− mice; sDSS1 3 mg/kg intraperitoneal once a day, high-fat diet): significantly reduced
Plaque area ratio (oil red O stained area / total aortic area) vs model group (ApoE−/− mice; sDSS1 3 mg/kg intraperitoneal once a day, **P<0.01): significantly smaller
Plaque area ratio, sDSS1 protein group vs positive drug group (ApoE−/− mice; sDSS1 3 mg/kg vs ATV 40 mg/kg): no significant difference
Effect on plaque area in certain areas of the aorta vs positive drug (ApoE−/− mice; sDSS1 3 mpk vs ATV 40 mpk): even better
DiL fluorescence level within Hep G2 cells, DiL-oxLDL (flow cytometry) (Hep G2 cells; 5 μg/ml sDSS1, 10 μg/ml DiL-oxLDL): does not significantly affect; also recorded: did not significantly affect
DiL signal intensity in Hep G2 cells, DiL-oxLDL (flow cytometry) (Hep G2 cells; 50 μg/ml sDSS1 protein, 10 μg/ml DiL-oxLDL): significantly increase
Interaction with LDL (complex on SDS-PAGE gel) (LDL; phosphate buffer pH 7.2, 37° C.): interacted with the sDSS1 protein; also recorded: resulted in interactions
Interaction with LDL (complex on SDS-PAGE gel) (LDL; sodium acetate/acetic acid buffer pH 4.5, 37° C.): interacted with the sDSS1 protein; also recorded: resulted in interactions
Macrophages having fluorescence (flow cytometry) ([1]; 2 μg/ml sDSS1 protein): not detected; also recorded: basically didn't appear
Macrophages having fluorescence (flow cytometry) ([1]; 10 μg/ml sDSS1 protein): not detected; also recorded: basically didn't appear
Fluorescence in macrophages (fluorescence microscope) ([1]; sDSS1 protein added (2 and 10 μg/ml)): no obvious fluorescence was observed in the cells, or the fluorescence was very weak; also recorded: basically no obvious fluorescent signals were observed
Interaction with oxLDL (complex on SDS-PAGE gel) (oxLDL; phosphate buffer pH 7.2): interacted with the sDSS1 protein; also recorded: resulted in interactions
Interaction with oxLDL (complex on SDS-PAGE gel) (oxLDL; sodium acetate/acetic acid buffer pH 4.5, 37° C., 12 h): interacted with the sDSS1 protein; also recorded: resulted in interactions
